Data taken from article PMC4005638, “Interactions between the non-seed region of siRNA and RNA-binding RLC/RISC proteins, Ago and TRBP, in mammalian cells”.

T1: TRBP (Homo sapiens, UniProt Q15633 1-366)
T1 sequence: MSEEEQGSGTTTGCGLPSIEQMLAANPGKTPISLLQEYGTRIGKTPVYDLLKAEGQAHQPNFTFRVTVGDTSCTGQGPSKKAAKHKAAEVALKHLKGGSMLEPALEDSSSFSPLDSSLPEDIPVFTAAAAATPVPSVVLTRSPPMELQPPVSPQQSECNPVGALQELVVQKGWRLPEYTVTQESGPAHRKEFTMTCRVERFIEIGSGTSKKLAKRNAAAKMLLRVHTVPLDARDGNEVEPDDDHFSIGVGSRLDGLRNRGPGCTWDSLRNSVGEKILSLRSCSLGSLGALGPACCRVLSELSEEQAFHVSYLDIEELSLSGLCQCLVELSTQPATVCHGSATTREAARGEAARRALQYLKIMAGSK

B1: siLuc-36 nonmodified (dsRNA)
RNA 1: UCUUCCAGCGGAUAGAAUGGC
RNA 2: CAUUCUAUCCGCUGGAAGAUG
B2: siLuc-36 TCA-RNA (mixed)
DNA 1: TCTTCCAGCGGATAGAAUGGC
DNA 2: CAUUCTAUCCGCTGGAAGATG
modifications: DNA: seed duplex and subdomain B (guide 1-8, 13-14; passenger 6-7, 12-21)
B3: siLuc-36 siDNA (dsDNA)
DNA 1: TCTTCCAGCGGATAGAATGGC
DNA 2: CATTCTATCCGCTGGAAGATG
modifications: all ribonucleotides replaced by DNA
B4: siLuc2-153 siDNA (dsDNA)
DNA 1: TCGAAGTATTCCGCGTACGTG
DNA 2: CGTACGCGGAATACTTCGATT
modifications: all ribonucleotides replaced by DNA

Experiments:
[1] = molecular target: T2, GST-PAZ (human AGO1 PAZ domain) (Homo sapiens, UniProt Q9UL18 222-376); experiment: EMSA; TRBP EMSA: 20 mM Tris pH 7.5, 150 mM NaCl, 2 mM EDTA, 1 mM 2-ME, 1 mM DTT, 50 ng/ml salmon sperm DNA, RNasin, 0.5 nM siRNA, 30 min; PAZ EMSA: 1 pmol/ul PAZ, 5 fmol/ul siRNA, 20 mM Tris-HCl pH 7.5, 100 mM NaCl, 2 mM EDTA, 1 mM DTT, 5% glycerol, 50 ng/ul poly(dA-dT), RNasin, 30 min, room temperature; details: protein: recombinant; tags: N-terminal GST, C-terminal 6xHis; label: 32P guide strand; 19 bp, 2-nt 3' overhangs
T2 sequence (Q9UL18 222-376): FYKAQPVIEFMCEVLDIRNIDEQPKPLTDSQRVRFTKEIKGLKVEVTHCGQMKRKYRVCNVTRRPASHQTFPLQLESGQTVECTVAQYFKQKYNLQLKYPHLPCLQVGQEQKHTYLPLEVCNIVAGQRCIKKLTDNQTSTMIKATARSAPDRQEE

[2] = molecular target: T2, GST-PAZ (human AGO1 PAZ domain); experiment: EMSA; strong; TRBP EMSA: 20 mM Tris pH 7.5, 150 mM NaCl, 2 mM EDTA, 1 mM 2-ME, 1 mM DTT, 50 ng/ml salmon sperm DNA, RNasin, 0.5 nM siRNA, 30 min; PAZ EMSA: 1 pmol/ul PAZ, 5 fmol/ul siRNA, 20 mM Tris-HCl pH 7.5, 100 mM NaCl, 2 mM EDTA, 1 mM DTT, 5% glycerol, 50 ng/ul poly(dA-dT), RNasin, 30 min, room temperature; details: protein: recombinant; tags: N-terminal GST, C-terminal 6xHis; label: 32P guide strand; 19 bp, 2-nt 3' overhangs
TRBP = molecular target: T1, TRBP; experiment: EMSA; virtually no binding; TRBP EMSA: 20 mM Tris pH 7.5, 150 mM NaCl, 2 mM EDTA, 1 mM 2-ME, 1 mM DTT, 50 ng/ml salmon sperm DNA, RNasin, 0.5 nM siRNA, 30 min; PAZ EMSA: 1 pmol/ul PAZ, 5 fmol/ul siRNA, 20 mM Tris-HCl pH 7.5, 100 mM NaCl, 2 mM EDTA, 1 mM DTT, 5% glycerol, 50 ng/ul poly(dA-dT), RNasin, 30 min, room temperature; details: protein: recombinant; tags: N-terminal 6xHis; label: 32P guide strand; 19 bp, 2-nt 3' overhangs

Binder	binding result [1]	binding result [2]	binding result (TRBP)
B1	binds	–	–
B2	–	binds	–
B3	no binding	–	no binding
B4	–	–	no binding
